Laboratory results: patent US11130793B2, “GLP-1/GLP-2 dual agonists” (Zealand Pharma A/S, priority 2016, dated 2021)
Values belong to the binder of their own block, whether it stands above or below them. Square brackets hold non-standard residues; d marks the D form. Aib = CC(C)(N)C(=O)O

Key:
[1] = target: human glucagon-like peptide 1 receptor (GLP-1R) (human, UniProt P43220); test: cell-based or functional assay
[2] = target: T1, human GLP-2 receptor (hGLP2-R) (human, UniProt O95838); test: cell-based or functional assay
T1 sequence: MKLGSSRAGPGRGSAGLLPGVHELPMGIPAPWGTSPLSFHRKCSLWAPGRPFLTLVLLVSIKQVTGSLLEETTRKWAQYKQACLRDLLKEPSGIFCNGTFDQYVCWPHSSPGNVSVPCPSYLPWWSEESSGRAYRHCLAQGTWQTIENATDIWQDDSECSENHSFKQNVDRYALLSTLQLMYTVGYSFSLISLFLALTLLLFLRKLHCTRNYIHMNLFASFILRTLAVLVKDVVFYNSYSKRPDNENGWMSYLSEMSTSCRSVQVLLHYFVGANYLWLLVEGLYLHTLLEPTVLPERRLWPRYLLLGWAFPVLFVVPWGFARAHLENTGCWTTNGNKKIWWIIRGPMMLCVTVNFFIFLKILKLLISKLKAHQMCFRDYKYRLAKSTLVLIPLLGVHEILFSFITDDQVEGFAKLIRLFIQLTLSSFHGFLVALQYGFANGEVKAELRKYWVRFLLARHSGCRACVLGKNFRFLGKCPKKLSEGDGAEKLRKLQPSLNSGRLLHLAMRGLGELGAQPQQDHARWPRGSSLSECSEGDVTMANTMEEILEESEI

EC50 GLP-1 (nM); cAMP AlphaScreen [1]: 0.011 nM
EC50 GLP-2 (nM); cAMP AlphaScreen [2]: 0.085 nM
B2: Compound 11 (peptide)
peptide: H-H[Aib]EGTFTSELATILDGKAARDFIAWLIAHKITD-OH
SMILES: CC[C@H](C)[C@H](NC(=O)[C@H](CC(C)C)NC(=O)[C@H](Cc1c[nH]c2ccccc12)NC(=O)[C@H](C)NC(=O)[C@@H](NC(=O)[C@H](Cc1ccccc1)NC(=O)[C@H](CC(=O)O)NC(=O)[C@H](CCCNC(=N)N)NC(=O)[C@H](C)NC(=O)[C@H](C)NC(=O)[C@H](CCCCN)NC(=O)CNC(=O)[C@H](CC(=O)O)NC(=O)[C@H](CC(C)C)NC(=O)[C@@H](NC(=O)[C@@H](NC(=O)[C@H](C)NC(=O)[C@H](CC(C)C)NC(=O)[C@H](CCC(=O)O)NC(=O)[C@H](CO)NC(=O)[C@@H](NC(=O)[C@H](Cc1ccccc1)NC(=O)[C@@H](NC(=O)CNC(=O)[C@H](CCC(=O)O)NC(=O)C(C)(C)NC(=O)[C@@H](N)Cc1c[nH]cn1)[C@@H](C)O)[C@@H](C)O)[C@@H](C)O)[C@@H](C)CC)[C@@H](C)CC)C(=O)N[C@@H](C)C(=O)N[C@@H](Cc1c[nH]cn1)C(=O)N[C@@H](CCCCN)C(=O)N[C@H](C(=O)N[C@H](C(=O)N[C@@H](CC(=O)O)C(=O)O)[C@@H](C)O)[C@@H](C)CC

EC50 GLP-1 (nM); cAMP AlphaScreen [1]: 0.005 nM
EC50 GLP-2 (nM); cAMP AlphaScreen [2]: 0.05 nM
B4: Compound 10 (peptide)
peptide: H-H[Aib]EGTFTSELSTILDEQAARDFIAWLIAHKITD-OH
SMILES: CC[C@H](C)[C@H](NC(=O)[C@H](CC(C)C)NC(=O)[C@H](Cc1c[nH]c2ccccc12)NC(=O)[C@H](C)NC(=O)[C@@H](NC(=O)[C@H](Cc1ccccc1)NC(=O)[C@H](CC(=O)O)NC(=O)[C@H](CCCNC(=N)N)NC(=O)[C@H](C)NC(=O)[C@H](C)NC(=O)[C@H](CCC(N)=O)NC(=O)[C@H](CCC(=O)O)NC(=O)[C@H](CC(=O)O)NC(=O)[C@H](CC(C)C)NC(=O)[C@@H](NC(=O)[C@@H](NC(=O)[C@H](CO)NC(=O)[C@H](CC(C)C)NC(=O)[C@H](CCC(=O)O)NC(=O)[C@H](CO)NC(=O)[C@@H](NC(=O)[C@H](Cc1ccccc1)NC(=O)[C@@H](NC(=O)CNC(=O)[C@H](CCC(=O)O)NC(=O)C(C)(C)NC(=O)[C@@H](N)Cc1c[nH]cn1)[C@@H](C)O)[C@@H](C)O)[C@@H](C)O)[C@@H](C)CC)[C@@H](C)CC)C(=O)N[C@@H](C)C(=O)N[C@@H](Cc1c[nH]cn1)C(=O)N[C@@H](CCCCN)C(=O)N[C@H](C(=O)N[C@H](C(=O)N[C@@H](CC(=O)O)C(=O)O)[C@@H](C)O)[C@@H](C)CC

EC50 GLP-1 (nM); cAMP AlphaScreen [1]: 0.055 nM
EC50 GLP-2 (nM); cAMP AlphaScreen [2]: 0.076 nM
B6: Compound 12 (peptide)
peptide: H-H[Aib]EGTFTSELATILDEQAARDFIAWLHAHKITD-OH
SMILES: CC[C@H](C)[C@H](NC(=O)[C@H](Cc1ccccc1)NC(=O)[C@H](CC(=O)O)NC(=O)[C@H](CCCNC(=N)N)NC(=O)[C@H](C)NC(=O)[C@H](C)NC(=O)[C@H](CCC(N)=O)NC(=O)[C@H](CCC(=O)O)NC(=O)[C@H](CC(=O)O)NC(=O)[C@H](CC(C)C)NC(=O)[C@@H](NC(=O)[C@@H](NC(=O)[C@H](C)NC(=O)[C@H](CC(C)C)NC(=O)[C@H](CCC(=O)O)NC(=O)[C@H](CO)NC(=O)[C@@H](NC(=O)[C@H](Cc1ccccc1)NC(=O)[C@@H](NC(=O)CNC(=O)[C@H](CCC(=O)O)NC(=O)C(C)(C)NC(=O)[C@@H](N)Cc1c[nH]cn1)[C@@H](C)O)[C@@H](C)O)[C@@H](C)O)[C@@H](C)CC)C(=O)N[C@@H](C)C(=O)N[C@@H](Cc1c[nH]c2ccccc12)C(=O)N[C@@H](CC(C)C)C(=O)N[C@@H](Cc1c[nH]cn1)C(=O)N[C@@H](C)C(=O)N[C@@H](Cc1c[nH]cn1)C(=O)N[C@@H](CCCCN)C(=O)N[C@H](C(=O)N[C@H](C(=O)N[C@@H](CC(=O)O)C(=O)O)[C@@H](C)O)[C@@H](C)CC

Second part, the binder before the results:

B1: Compound 8 (peptide)
peptide: H-H[Aib]EGSFTSELATILDEQAARDFIAWLILHKITD-OH
SMILES: CC[C@H](C)[C@H](NC(=O)[C@H](Cc1ccccc1)NC(=O)[C@H](CC(=O)O)NC(=O)[C@H](CCCNC(=N)N)NC(=O)[C@H](C)NC(=O)[C@H](C)NC(=O)[C@H](CCC(N)=O)NC(=O)[C@H](CCC(=O)O)NC(=O)[C@H](CC(=O)O)NC(=O)[C@H](CC(C)C)NC(=O)[C@@H](NC(=O)[C@@H](NC(=O)[C@H](C)NC(=O)[C@H](CC(C)C)NC(=O)[C@H](CCC(=O)O)NC(=O)[C@H](CO)NC(=O)[C@@H](NC(=O)[C@H](Cc1ccccc1)NC(=O)[C@H](CO)NC(=O)CNC(=O)[C@H](CCC(=O)O)NC(=O)C(C)(C)NC(=O)[C@@H](N)Cc1c[nH]cn1)[C@@H](C)O)[C@@H](C)O)[C@@H](C)CC)C(=O)N[C@@H](C)C(=O)N[C@@H](Cc1c[nH]c2ccccc12)C(=O)N[C@@H](CC(C)C)C(=O)N[C@H](C(=O)N[C@@H](CC(C)C)C(=O)N[C@@H](Cc1c[nH]cn1)C(=O)N[C@@H](CCCCN)C(=O)N[C@H](C(=O)N[C@H](C(=O)N[C@@H](CC(=O)O)C(=O)O)[C@@H](C)O)[C@@H](C)CC)[C@@H](C)CC
EC50 GLP-1 (nM); cAMP AlphaScreen [1]: 0.021 nM
EC50 GLP-2 (nM); cAMP AlphaScreen [2]: 0.084 nM

B3: Compound 9 (peptide)
peptide: H-H[Aib]EGTFTDELATILDEQAARDFIAWLIAHKITD-OH
SMILES: CC[C@H](C)[C@H](NC(=O)[C@H](CC(C)C)NC(=O)[C@H](Cc1c[nH]c2ccccc12)NC(=O)[C@H](C)NC(=O)[C@@H](NC(=O)[C@H](Cc1ccccc1)NC(=O)[C@H](CC(=O)O)NC(=O)[C@H](CCCNC(=N)N)NC(=O)[C@H](C)NC(=O)[C@H](C)NC(=O)[C@H](CCC(N)=O)NC(=O)[C@H](CCC(=O)O)NC(=O)[C@H](CC(=O)O)NC(=O)[C@H](CC(C)C)NC(=O)[C@@H](NC(=O)[C@@H](NC(=O)[C@H](C)NC(=O)[C@H](CC(C)C)NC(=O)[C@H](CCC(=O)O)NC(=O)[C@H](CC(=O)O)NC(=O)[C@@H](NC(=O)[C@H](Cc1ccccc1)NC(=O)[C@@H](NC(=O)CNC(=O)[C@H](CCC(=O)O)NC(=O)C(C)(C)NC(=O)[C@@H](N)Cc1c[nH]cn1)[C@@H](C)O)[C@@H](C)O)[C@@H](C)O)[C@@H](C)CC)[C@@H](C)CC)C(=O)N[C@@H](C)C(=O)N[C@@H](Cc1c[nH]cn1)C(=O)N[C@@H](CCCCN)C(=O)N[C@H](C(=O)N[C@H](C(=O)N[C@@H](CC(=O)O)C(=O)O)[C@@H](C)O)[C@@H](C)CC
EC50 GLP-1 (nM); cAMP AlphaScreen [1]: 0.007 nM
EC50 GLP-2 (nM); cAMP AlphaScreen [2]: 0.041 nM

B5: Compound 6 (peptide)
peptide: H-H[Aib]EGSFTSELATILDEQAARDFIAWLIHHKITD-OH
SMILES: CC[C@H](C)[C@H](NC(=O)[C@H](Cc1ccccc1)NC(=O)[C@H](CC(=O)O)NC(=O)[C@H](CCCNC(=N)N)NC(=O)[C@H](C)NC(=O)[C@H](C)NC(=O)[C@H](CCC(N)=O)NC(=O)[C@H](CCC(=O)O)NC(=O)[C@H](CC(=O)O)NC(=O)[C@H](CC(C)C)NC(=O)[C@@H](NC(=O)[C@@H](NC(=O)[C@H](C)NC(=O)[C@H](CC(C)C)NC(=O)[C@H](CCC(=O)O)NC(=O)[C@H](CO)NC(=O)[C@@H](NC(=O)[C@H](Cc1ccccc1)NC(=O)[C@H](CO)NC(=O)CNC(=O)[C@H](CCC(=O)O)NC(=O)C(C)(C)NC(=O)[C@@H](N)Cc1c[nH]cn1)[C@@H](C)O)[C@@H](C)O)[C@@H](C)CC)C(=O)N[C@@H](C)C(=O)N[C@@H](Cc1c[nH]c2ccccc12)C(=O)N[C@@H](CC(C)C)C(=O)N[C@H](C(=O)N[C@@H](Cc1c[nH]cn1)C(=O)N[C@@H](Cc1c[nH]cn1)C(=O)N[C@@H](CCCCN)C(=O)N[C@H](C(=O)N[C@H](C(=O)N[C@@H](CC(=O)O)C(=O)O)[C@@H](C)O)[C@@H](C)CC)[C@@H](C)CC
EC50 GLP-1 (nM); cAMP AlphaScreen [1]: 0.014 nM
EC50 GLP-2 (nM); cAMP AlphaScreen [2]: 0.047 nM

B7: Compound 7 (peptide)
peptide: H-H[Aib]EGSFTSELATILDEQAARDFIAWLIYHKITD-OH
SMILES: CC[C@H](C)[C@H](NC(=O)[C@H](Cc1ccccc1)NC(=O)[C@H](CC(=O)O)NC(=O)[C@H](CCCNC(=N)N)NC(=O)[C@H](C)NC(=O)[C@H](C)NC(=O)[C@H](CCC(N)=O)NC(=O)[C@H](CCC(=O)O)NC(=O)[C@H](CC(=O)O)NC(=O)[C@H](CC(C)C)NC(=O)[C@@H](NC(=O)[C@@H](NC(=O)[C@H](C)NC(=O)[C@H](CC(C)C)NC(=O)[C@H](CCC(=O)O)NC(=O)[C@H](CO)NC(=O)[C@@H](NC(=O)[C@H](Cc1ccccc1)NC(=O)[C@H](CO)NC(=O)CNC(=O)[C@H](CCC(=O)O)NC(=O)C(C)(C)NC(=O)[C@@H](N)Cc1c[nH]cn1)[C@@H](C)O)[C@@H](C)O)[C@@H](C)CC)C(=O)N[C@@H](C)C(=O)N[C@@H](Cc1c[nH]c2ccccc12)C(=O)N[C@@H](CC(C)C)C(=O)N[C@H](C(=O)N[C@@H](Cc1ccc(O)cc1)C(=O)N[C@@H](Cc1c[nH]cn1)C(=O)N[C@@H](CCCCN)C(=O)N[C@H](C(=O)N[C@H](C(=O)N[C@@H](CC(=O)O)C(=O)O)[C@@H](C)O)[C@@H](C)CC)[C@@H](C)CC
EC50 GLP-1 (nM); cAMP AlphaScreen [1]: 0.017 nM
EC50 GLP-2 (nM); cAMP AlphaScreen [2]: 0.11 nM
